Experimental data from US20080131419A1.

Experiments:
[1] = molecular target: actin filaments (F-actin) of lily pollen tubes (lily (Lilium grandiflorum / Lilium longiflorum cv. Osnat)); test: cell-based or functional assay
[2] = molecular target: actin filaments (F-actin) of lily pollen tubes

inhibition of lily pollen tube elongation, 1 uM enzymatically heat-inactivated RNase B1 (EI-RNase B1) [1]: 55%
B1: Aspergillus niger B1 extracellular RNase (RNase B1) (protein)
chain: TIDTCSSDSPLSCQTDNEASCCFNSPGGSLLQTQFWDYDPSDGPSGSWTIHGLWPDNCDGTYQEYCDESREYSNITSILEAQNRTELLSYMKEYWPDYEGADEDESFWEHEWNKHGTCINTIEPSCYTDYYAQEEVGDFFQQVVDLFKTLDSYTALSDAGITPSEDATYKLSDIEDALAAIHDGYPPYVGCEDGALSQLYYYFNVKGSAIGGTYVASERLEDSNCKDSGIKYPPKYSSSKKIYGSSL
actin filament distribution in pollen tubes (TRITC-phalloidin staining) [2]: in RNase-treated pollen tubes masses of F-actin were accumulated at the tip cell wall
lily pollen tube length in vitro, RNase B1 100 units/ml (16 ug/ml), 2 h (control about 300 um) [2]: reached only 160 µm in length
lily pollen tube length in vitro, autoclaved RNase B1 (control about 300 um) [2]: Boiling or autoclaving the RNase yielded pollen tubes of 130 and 170 µm in length, respectively
lily pollen tube length in vitro, boiled RNase B1 (control about 300 um) [2]: Boiling or autoclaving the RNase yielded pollen tubes of 130 and 170 µm in length, respectively
